Test results: patent US20230256114A1, “NOVEL MAYTANSINOIDS AS ADC PAYLOADS AND THEIR USE FOR THE TREATMENT OF CANCER” (priority 2020, published 2023)

How the values were obtained:
[1] = Size exclusion chromatography (SEC) of ADC monomer and aggregates; format: physicochemical; details: anti-Trop-2 ADC with the named payload, Lysine conjugation, DAR 3.9
[2] = Solubility of payloads and ADCs (comparison in words); details: inferred from Table 2
Procedure: The lipophilicity and aggregation rate of the ADCs of the present invention were characterized. The most commonly used measure of lipophilicity is LogP, which is the partition coefficient of a molecule between aqueous and lipophilic phases, usually octanol and water. […] In this experiment, the LogP of anti-Trop-2 BI-P203 and anti-Trop-2-SMCC-DM1 was calculated using ChemDraw software. Size exclusion chromatography (SEC) was used to characterize the ADC monomer and their aggregates.

[3] = Size exclusion chromatography (SEC) of ADC monomer and aggregates; format: physicochemical; details: for Aggregation rate (%): anti-Trop-2 ADC with the named payload, Cysteine conjugation
Procedure: Some embodiments of the invention relate to DM1s linked to antibodies via a non-cleavable linker. In this example, anti-Trop-2 antibody was reduced by adding antibody to TCEP (Tris (2-carboxyethyl) phosphine) dissolved in a pH-adjusted PBS EDTA buffer. The antibody/TCEP solution was incubated at 37° C. for 2-3 hrs. The reduced antibodies were buffer exchanged into conjugation reaction buffer. The BI-P203 payload dissolved in DMSO was added to a solution of reduced anti-Trop-2 monoclonal antibody at payload/antibody ratio of 7-30:1 in order to achieve different drug to antibody ratios (DARs). The payload/antibody solution was incubated for 1-2 hr at 20° C. while the reduced antibody was conjugated to BI-P203 payload via the maleimide group. After conjugation was completed, the reaction mixture was desalted and concentrated to yield anti-Trop-2-DM1 ADCs. The biochemical properties of the resulting ADCs were characterized using size-exclusion chromatography high pressure liquid chromatography (SEC-HPLC) to determine purity and aggregation content, and by using hydrophobic interaction chromatography HPLC (HIC-HPLC) to confirm drug loading (DAR). The conjugation procedure is illustrated in FIG. 12. The final ADC products are comprised of four or six or seven DM1-linker molecules. The cysteine conjugation method used in the conjugation process produces more homogenous ADCs compared to lysine conjugation method.

[4] = test system: MDA-MB-468 breast cancer cells; test: In vitro cytotoxicity assay (Cell Counting Kit-8, 72 hours); format: cell-based, human; details: FIG. 21
Procedure: (§1) Anti-Trop-2 ADCs were conjugated with different DM1 derivatives with similar DARs, and were tested ahead to ahead with anti-Trop-2-SMCC-DM1 and anti-Trop-2-vc-MMAE against BxPC-3 pancreatic cancer cells representing high Trop-2 expression, MDA-MB-468 breast cancer cells, N87 gastric cancer cells, and SK-BR-3 […] cancer cells representing moderate Trop-2 expression, Colo205 colon cancer cells representing low Trop-2 expression, and A549 lung cancer cells and MDA-MB-231 breast cancer cells with undetectable level of Trop-2. In vitro cytotoxicity assay was performed. Briefly, all cell lines were cultured in a suitable culture medium at 37° C. in a humidified incubator atmosphere of 5% CO2. Cells were plated in 96-well flat bottom plates. Cell seeding number ranged from 500 cells//100 ul/well to 6,000 cells/100 μl/well. Cells were allowed to adhere overnight at 37° C. in a humidified atmosphere of 5% CO2. ADCs were prepared from stock solution and diluted into appropriated working concentration 24 hours after cell seeding. […] Cell Counting Kit-8 solution (Dojindo China Co., Ltd, lot #PL701) was added to the wells for 1-4 hours at 37° C. and the absorbance at 450 nm was measured using a Microplate Reader (SpectraMax M5, Molecular Devices) and SoftMax Pro5.4.1 software. Dose-response curves were generated and IC50 was calculated using GraphPad Prism 7 three-parameter curve fitting.

[5] = test system: MDA-MB-468, SK-BR-3, Colo205, and A549 cells; test: In vitro cytotoxicity assay of ADCs and free payloads (FIG. 20); format: cell-based; details: all tested cells
Procedure: as §1, with “fitting. […]” for “fitting.”

SMILES | Aggregation rate (%) [1] | solubility of payload compared to SMCC-DM1 payload [2] | aggregation rate compared to SMCC-DM1 payload ([3]; ADCs of the payloads) | Aggregation rate (%) ([3]; DAR 3.5) | Aggregation rate (%) ([3]; DAR 6.2) | Aggregation rate (%) ([3]; DAR 7.0) | in vitro activity of the free payload compared with free SMCC-DM1 payload [4] | in vitro cytotoxic potency of the free payload compared with free BI-P203 [5]
COc1cc2cc(c1Cl)N(C)C(=O)C[C@H](OC(=O)[C@H](C)N(C)C(=O)CCSC1CC(=O)N(CC3CCC(C(=O)ON4C(=O)CCC4=O)CC3)C1=O)[C@]1(C)O[C@H]1[C@H](C)[C@@H]1C[C@@](O)(NC(=O)O1)[C@H](OC)/C=C/C=C(\C)C2 (stereo partly drawn) [SMCC-DM1] | 3.6% | – | – | – | – | – | – | –
COc1cc2cc(c1Cl)N(C)C(=O)C[C@H](OC(=O)[C@H](C)N(C)C(=O)CCOCCn1cc(COCCOCCOCCOCCNC(=O)CCN3C(=O)C=CC3=O)nn1)[C@@]1(C)O[C@H]1[C@H](C)[C@@H]1C[C@@](O)(NC(=O)O1)C(OC)/C=C/C=C(\C)C2 (stereo partly drawn) [BI-P203] | – | increased solubility | decreased aggregation rate | 0.33% | 1.0% | 2.0% | less activity than that of free SCMM-DM1 payload | –
COc1cc2cc(c1Cl)N(C)C(=O)C[C@H](OC(=O)[C@H](C)N(C)C(=O)COCCn1cc(COCCOCCOCCNC(=O)CCN3C(=O)C=CC3=O)nn1)C1(C)O[C@H]1[C@H](C)[C@@H]1C[C@@](O)(NC(=O)O1)C(OC)/C=C/C=C(\C)C2 (stereo partly drawn) [BI-P209] | – | – | – | – | 4.96% | – | – | slightly more potent than free BI-P203
